Measured values taken from patent US20240309072A1 (Regeneron, published 2024).
Like-named read-outs stand apart in the source and are kept apart here.

Columns and labels:
Test in all cases: cell-based or functional assay
SARS-COV-2 Spike, D614G [1] = target: T1, SARS-COV-2 Spike, D614G (SARS-COV-2, UniProt P0DTC2 14-1273)
[2] = target: T2, SARS-COV-2 Spike, Omicron variant BA.1 (SARS-COV-2, UniProt P0DTC2 14-1273)
[3] = target: T3, SARS-COV-2 Spike, Omicron variant BA.4/BA.5 (SARS-COV-2, UniProt P0DTC2 14-1273)
[4] = target: T4, SARS-COV-2 Spike, Omicron variant BA.2 (SARS-COV-2, UniProt P0DTC2 14-1273)
[5] = target: SARS-COV-2 Spike, Omicron variant BA.2.75 (SARS-COV-2, UniProt P0DTC2 14-1273)
SARS-COV-2 Spike, D614G [6] = target: T1, SARS-COV-2 Spike, D614G; remark: listed apart in the source
[7] = target: T2, SARS-COV-2 Spike, Omicron variant BA.1; remark: listed apart in the source
[8] = target: T3, SARS-COV-2 Spike, Omicron variant …; remark: listed apart in the source
[9] = target: SARS-COV-2 Spike, Omicron variant BA.2.12.1 (SARS-COV-2, UniProt P0DTC2 14-1273)
[10] = target: T4, SARS-COV-2 Spike, Omicron variant BA.2; remark: listed apart in the source
SARS-COV-2 Spike, D614G [11] = target: T1, SARS-COV-2 Spike, D614G; remark: listed apart in the source

Binder	Fold Change over R10933 + R10987 against D614G (SARS-COV-2 Spike, D614G [1])	pseudovirus neutralization IC50 (SARS-COV-2 Spike, D614G [1])	Fold Change over R10933 + R10987 against D614G [2]	pseudovirus neutralization IC50 [2]	Fold Change over R10933 + R10987 against D614G [3]	pseudovirus neutralization IC50 [3]	Fold Change over R10933 + R10987 against D614G [4]	pseudovirus neutralization IC50 [4]	Fold Change over R10933 + R10987 against D614G [5]	pseudovirus neutralization IC50 [5]	Fold change over R10987 against D614G [8]	pseudovirus neutralization IC50 [8]	Fold change over R10987 against D614G [9]	pseudovirus neutralization IC50 [9]	Fold change over R10987 against D614G [10]	pseudovirus neutralization IC50 [10]	also measured
REGN14315 (antibody, V domains shown) VH: QVQLVQSGAEVKKPGSSVKVSCKASGDTFSTYAINWVRQAPGQGLEWMGRFIHIFGTANYAQKFQGRVTITADESTSTAYMELRSLRSEDTAVYYCARDGVDYGDYRPDYWGQGTLVTVSS VL: EIVLTQSPGTLSLSPGERATLSCRASQSVSSNYLAWYQQKPGQAPRLLIYGASSRATGIPERFSGSGSGTDFTLTISRLEPEDFAVYYCQQYGSSLYTFGQGTKLEIK	0.6 fold	0.00878 nM	2.76 fold	0.0404 nM	10.8 fold	0.159 nM	11.5 fold	0.168 nM	87 fold	1.28 nM	9.38 fold	0.0497 nM	12.7 fold	0.0673 nM	6.78 fold	0.0359 nM	Fold change over R10987 against D614G (SARS-COV-2 Spike, D614G [6]): 0.22 fold; pseudovirus neutralization IC50 (SARS-COV-2 Spike, D614G [6]): 0.00115 nM; Fold change over R10987 against D614G [7]: 1.03 fold; pseudovirus neutralization IC50 [7]: 0.00547 nM
REGN14287 + REGN14315 (other) VH 1: QVQLVQSGAEVKKPGSSVKVSCKASGGTFSNNAISWVRQAPGQGLEWMGKIIPILGIGGDAQKFQGRFTITADKSTSTAYMELSSLRSEDTAVYYCANSGDSRPHAFDIWGQGTMVTVSS VL 1: QSALTQPASVSGSPGQSITISCTGTSSDVGSYNLVSWYQQHPGKAPKLMIYEVSKRPSGVSNRFSGSKSGNTASLTISGLQAEDEADYYCSSYAGSRREVFGGGTKLTVL VH 2: QVQLVQSGAEVKKPGSSVKVSCKASGDTFSTYAINWVRQAPGQGLEWMGRFIHIFGTANYAQKFQGRVTITADESTSTAYMELRSLRSEDTAVYYCARDGVDYGDYRPDYWGQGTLVTVSS VL 2: EIVLTQSPGTLSLSPGERATLSCRASQSVSSNYLAWYQQKPGQAPRLLIYGASSRATGIPERFSGSGSGTDFTLTISRLEPEDFAVYYCQQYGSSLYTFGQGTKLEIK	0.76 fold	0.0111 nM	6.11 fold	0.0896 nM	14.9 fold	0.219 nM	9.75 fold	0.143 nM	20.5 fold	0.3 nM	–	–	–	–	–	–	–
REGN14315 + REGN10987 (other) VH 1: QVQLVQSGAEVKKPGSSVKVSCKASGDTFSTYAINWVRQAPGQGLEWMGRFIHIFGTANYAQKFQGRVTITADESTSTAYMELRSLRSEDTAVYYCARDGVDYGDYRPDYWGQGTLVTVSS VL 1: EIVLTQSPGTLSLSPGERATLSCRASQSVSSNYLAWYQQKPGQAPRLLIYGASSRATGIPERFSGSGSGTDFTLTISRLEPEDFAVYYCQQYGSSLYTFGQGTKLEIK VH 2: QVQLVESGGGVVQPGRSLRLSCAASGFTFSNYAMYWVRQAPGKGLEWVAVISYDGSNKYYADSVKGRFTISRDNSKNTLYLQMNSLRTEDTAVYYCASGSDYGDYLLVYWGQGTLVTVSS VL 2: QSALTQPASVSGSPGQSITISCTGTSSDVGGYNYVSWYQQHPGKAPKLMIYDVSKRPSGVSNRFSGSKSGNTASLTISGLQSEDEADYYCNSLTSISTWVFGGGTKLTVL	–	–	–	–	–	–	–	–	–	–	20.7 fold	0.11 nM	21 fold	0.111 nM	13.2 fold	0.0699 nM	Fold change over R10987 against D614G (SARS-COV-2 Spike, D614G [6]): 0.7 fold; pseudovirus neutralization IC50 (SARS-COV-2 Spike, D614G [6]): 0.00368 nM; Fold change over R10987 against D614G [7]: 3.18 fold; pseudovirus neutralization IC50 [7]: 0.0169 nM
REGN14287 (antibody, V domains shown) VH: QVQLVQSGAEVKKPGSSVKVSCKASGGTFSNNAISWVRQAPGQGLEWMGKIIPILGIGGDAQKFQGRFTITADKSTSTAYMELSSLRSEDTAVYYCANSGDSRPHAFDIWGQGTMVTVSS VL: QSALTQPASVSGSPGQSITISCTGTSSDVGSYNLVSWYQQHPGKAPKLMIYEVSKRPSGVSNRFSGSKSGNTASLTISGLQAEDEADYYCSSYAGSRREVFGGGTKLTVL	6.18 fold	0.0906 nM	3.28 fold	0.0481 nM	3.41 fold	0.05 nM	1.94 fold	0.0284 nM	3.94 fold	0.0578 nM	–	–	–	–	–	–	–
REGN10933 + REGN10987 (other) VH 1: QVQLVESGGGLVKPGGSLRLSCAASGFTFSDYYMSWIRQAPGKGLEWVSYITYSGSTIYYADSVKGRFTISRDNAKSSLYLQMNSLRAEDTAVYYCARDRGTTMVPFDYWGQGTLVTVSS VL 1: DIQMTQSPSSLSASVGDRVTITCQASQDITNYLNWYQQKPGKAPKLLIYAASNLETGVPSRFSGSGSGTDFTFTISGLQPEDIATYYCQQYDNLPLTFGGGTKVEIK VH 2: QVQLVESGGGVVQPGRSLRLSCAASGFTFSNYAMYWVRQAPGKGLEWVAVISYDGSNKYYADSVKGRFTISRDNSKNTLYLQMNSLRTEDTAVYYCASGSDYGDYLLVYWGQGTLVTVSS VL 2: QSALTQPASVSGSPGQSITISCTGTSSDVGGYNYVSWYQQHPGKAPKLMIYDVSKRPSGVSNRFSGSKSGNTASLTISGLQSEDEADYYCNSLTSISTWVFGGGTKLTVL	1 fold	0.0147 nM	–	–	230 fold	3.37 nM	326 fold	4.77 nM	–	–	–	–	–	–	–	–	pseudovirus neutralization IC50 (SARS-COV-2 Spike, D614G [11]): 0.012 nM
REGN10987 (antibody, V domains shown) VH: QVQLVESGGGVVQPGRSLRLSCAASGFTFSNYAMYWVRQAPGKGLEWVAVISYDGSNKYYADSVKGRFTISRDNSKNTLYLQMNSLRTEDTAVYYCASGSDYGDYLLVYWGQGTLVTVSS VL: QSALTQPASVSGSPGQSITISCTGTSSDVGGYNYVSWYQQHPGKAPKLMIYDVSKRPSGVSNRFSGSKSGNTASLTISGLQSEDEADYYCNSLTSISTWVFGGGTKLTVL	0.89 fold	0.0131 nM	–	–	236 fold	3.46 nM	149 fold	2.18 nM	–	–	176 fold	0.933 nM	279 fold	1.48 nM	199 fold	1.06 nM	–
REGN10933 (antibody, V domains shown) VH: QVQLVESGGGLVKPGGSLRLSCAASGFTFSDYYMSWIRQAPGKGLEWVSYITYSGSTIYYADSVKGRFTISRDNAKSSLYLQMNSLRAEDTAVYYCARDRGTTMVPFDYWGQGTLVTVSS VL: DIQMTQSPSSLSASVGDRVTITCQASQDITNYLNWYQQKPGKAPKLLIYAASNLETGVPSRFSGSGSGTDFTFTISGLQPEDIATYYCQQYDNLPLTFGGGTKVEIK	1.98 fold	0.0291 nM	–	–	–	–	–	–	148 fold	2.17 nM	–	–	–	–	–	–	–
REGN14256 (antibody, V domains shown) VH: QVQLQESGPGLVKPSETLSLTCTVSGGSISSHYWSWIRQPPGKGLEWIGYIYYSGSSNYNPSLKSRVTISVDTSKNQFSLKLNSVTAADTAVYYCARHYDILTGFDWFDPWGQGTLVTVSS VL: QSVLTQPPSVSGAPGQRVTISCTGSSSNIGTHYDVHWYQQLPGTAPKLLIYGNSNRPSGVPDRFSGSKSGTSASLAITGLQAEDEADYYCQSFDNSLTAPYVFGTGTKVTVL	0.77 fold	0.0114 nM	–	–	–	–	–	–	–	–	–	–	–	–	–	–	–
